Test results: patent US20240317834A1, “COMPOSITIONS AND METHODS FOR NEUROLOGICAL DISEASES” (CODA BIOTHERAPEUTICS, INC., priority 2020, published 2024)

Tested on: Lenti-X 293T cells
Assay: YFP fluorescence quenching anion reporter plate reader assay of engineered receptors stimulated with acetylcholine or a non-native ligand
Assay type: cell-based
Settings: for percent quench of YFP fluorescence, 30 nM TC-6683: TC-6683 30 nM; for percent quench of YFP fluorescence, 300 nM TC-6683: TC-6683 300 nM; for percent quench of YFP fluorescence, 3 uM TC-6683: TC-6683 3 uM; for percent quench of YFP fluorescence, 30 uM TC-6683: TC-6683 30 uM; for percent quench of YFP fluorescence, 100 uM TC-6683: TC-6683 100 uM; for percent quench of YFP fluorescence, 10 uM ach: acetylcholine 10 uM; for percent quench of YFP fluorescence, 100 uM ach: acetylcholine 100 uM; for percent quench of YFP fluorescence, 1 mM ach: acetylcholine 1 mM; for percent quench of YFP fluorescence, 3 mM ach: acetylcholine 3 mM
Outline: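 YFP quench was followed for about 1 min 43 s after ligand delivered in iodide-based ECS, pH 7.2. Values are end-of-read fluorescence (last 10 s) divided by the pre-ligand baseline (15 s). Cells were LX293T, transfected with receptor DNA a day before the assay.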

B1: CODA333: engineered chimeric LGIC receptor, L131S in SEQ ID NO: 33 (protein)
chain: MRCSPGGVWLALAASLLHVSLQGEFQRKLYKELVKNYNPLERPVANDSQPLTVYFSLSLLQIMDVDEKNQVLTTNIWLQMSWTDHYLQWNVSEYPGVKTVRFPDGQIWKPDILLYNSADERFDATFHTNVSVNSSGHCQYLPPGIFKSSCPMDLKNFPMDVQTCKLKFGSWSYGGWSLDLQMQEADISGYIPNGEWDLVGIPGKRSERFYECCKEPYPDVTFTVTMRRRMGYYLIQMYIPSLLIVILSWISFWINMDAAPARVGLGITTVLTMTTQSSGSRASLPKVSYVKAIDIWMAVCLLFVFSALLEYAAVNFVSRQHKELLRFRRKRRHHKSPMLNLFQEDEAGEGRFNFSAYGMGPACLQAKDGISVKGANNSNTTNPPPAPSKSPEEMRKLFIQRAKKIDKISRIGFPMAFLIFNMFYWIIYKIVRREDVHNQ
modifications: synthetic sequence of chimeric LGIC
YFP fluorescence quenching using CNL001 (1 nM CNL001, first column): 76.165% | YFP fluorescence quenching using CNL001 (1 nM CNL001, second column): 78.463% | YFP fluorescence quenching using TC-5619/Bradanicline (1 nM brd): −0.85% | YFP fluorescence quenching using TC-5619/Bradanicline (3 nM brd): −2.05% | YFP fluorescence quenching using Varenicline (3 nM var, first column): −4.782 | YFP fluorescence quenching using Varenicline (3 nM var, second column): 1.048 | YFP fluorescence quenching using CNL001 (10 nM CNL001, first column): 79.349% | YFP fluorescence quenching using CNL001 (10 nM CNL001, second column): 78.238% | YFP fluorescence quenching using TC-5619/Bradanicline (10 nM brd): −2.8% | YFP fluorescence quenching using TC-5619/Bradanicline (30 nM brd): −2.07% | YFP fluorescence quenching using Facinicline (30 nM fac): 6.27 | YFP fluorescence quenching using Varenicline (30 nM var, first column): 2.084 | YFP fluorescence quenching using Varenicline (30 nM var, second column): 5.022 | YFP fluorescence quenching using CNL001 (50 nM CNL001, first column): 80.221% | YFP fluorescence quenching using CNL001 (50 nM CNL001, second column): 81.789% | YFP fluorescence quenching using ABT-126 (50 nM abt): −20.99% | YFP fluorescence quenching using CNL001 (100 nM CNL001, first column): 81.855% | YFP fluorescence quenching using CNL001 (100 nM CNL001, second column): 80.766% | YFP fluorescence quenching using CNL002 (100 nM CNL002): −15.44% | YFP fluorescence quenching using ABT-126 (100 nM abt): −16.21% | YFP fluorescence quenching using AZD-0328 (100 nM azd0328): 38.49% | YFP fluorescence quenching using TC-5619/Bradanicline (100 nM brd): 30.34% | YFP fluorescence quenching using ABT-126 (300 nM abt): −13.34% | YFP fluorescence quenching using AZD-0328 (300 nM azd0328): 67.13% | YFP fluorescence quenching using TC-5619/Bradanicline (300 nM brd): 50.56% | YFP fluorescence quenching using Facinicline (300 nM fac): 69.8 | YFP fluorescence quenching using Varenicline (300 nM var, first column): 12.162 | YFP fluorescence quenching using Varenicline (300 nM var, second column): 12.979 | YFP fluorescence quenching using Varenicline (500 nM var, first column): 29.238 | YFP fluorescence quenching using Varenicline (500 nM var, second column): 25.614 | YFP fluorescence quenching using CNL001 (1 uM CNL001, first column): 81.707% | YFP fluorescence quenching using CNL001 (1 uM CNL001, second column): 82.665% | YFP fluorescence quenching using CNL002 (1 uM CNL002): 15.21% | YFP fluorescence quenching using ABT-126 (1 uM abt): 4.96% | YFP fluorescence quenching using TC-5619/Bradanicline (1 uM brd): 72.42% | YFP fluorescence quenching using TC-6987 (1 uM tc6987): −3.87 | YFP fluorescence quenching using Varenicline (1 uM var, first column): 43.863 | YFP fluorescence quenching using Varenicline (1 uM var, second column): 39.346 | YFP fluorescence quenching using TC-6987 (3 uM tc6987): −20.2 | YFP fluorescence quenching using TC-6987 (5 uM tc6987): −15.25 | YFP fluorescence quenching using Facinicline (10 uM fac): 80.07 | YFP fluorescence quenching using TC-6987 (10 uM tc6987): 4.92 | YFP fluorescence quenching using AZD-0328 (30 uM azd0328): 80.61% | YFP fluorescence quenching using Facinicline (30 uM fac): 81.35 | YFP fluorescence quenching using TC-6987 (30 uM tc6987): 14.75 | YFP fluorescence quenching using TC-6987 (50 uM tc6987): 21.33 | YFP fluorescence quenching using TC-6987 (100 uM tc6987): 29.7 | YFP fluorescence quenching using TC-6987 (300 uM tc6987): 20.79 | YFP fluorescence quenching using TC-6987 (500 uM tc6987): 44.37 | percent quench of YFP fluorescence, 30 nM TC-6683: −23.88% | percent quench of YFP fluorescence, 300 nM TC-6683: −21.46% | percent quench of YFP fluorescence, 3 uM TC-6683: −21.07% | percent quench of YFP fluorescence, 30 uM TC-6683: −16.15% | percent quench of YFP fluorescence, 100 uM TC-6683: −18.96% | percent quench of YFP fluorescence, 10 uM ach: −10.11% | percent quench of YFP fluorescence, 100 uM ach: −10.05% | percent quench of YFP fluorescence, 1 mM ach: 32.11% | percent quench of YFP fluorescence, 3 mM ach: 57.37%

B2: CODA334: engineered chimeric LGIC receptor, L131Q in SEQ ID NO: 33 (protein)
chain: MRCSPGGVWLALAASLLHVSLQGEFQRKLYKELVKNYNPLERPVANDSQPLTVYFSLSLLQIMDVDEKNQVLTTNIWLQMSWTDHYLQWNVSEYPGVKTVRFPDGQIWKPDILLYNSADERFDATFHTNVQVNSSGHCQYLPPGIFKSSCPMDLKNFPMDVQTCKLKFGSWSYGGWSLDLQMQEADISGYIPNGEWDLVGIPGKRSERFYECCKEPYPDVTFTVTMRRRMGYYLIQMYIPSLLIVILSWISFWINMDAAPARVGLGITTVLTMTTQSSGSRASLPKVSYVKAIDIWMAVCLLFVFSALLEYAAVNFVSRQHKELLRFRRKRRHHKSPMLNLFQEDEAGEGRFNFSAYGMGPACLQAKDGISVKGANNSNTTNPPPAPSKSPEEMRKLFIQRAKKIDKISRIGFPMAFLIFNMFYWIIYKIVRREDVHNQ
modifications: synthetic sequence of chimeric LGIC
YFP fluorescence quenching using CNL001 (1 nM CNL001, first column): 76.165% | YFP fluorescence quenching using CNL001 (1 nM CNL001, second column): 78.463% | YFP fluorescence quenching using TC-5619/Bradanicline (3 nM brd): 41.92% | YFP fluorescence quenching using Varenicline (3 nM var, first column): −5.192 | YFP fluorescence quenching using Varenicline (3 nM var, second column): −4.327 | YFP fluorescence quenching using CNL001 (10 nM CNL001, first column): 79.349% | YFP fluorescence quenching using CNL001 (10 nM CNL001, second column): 78.238% | YFP fluorescence quenching using TC-5619/Bradanicline (30 nM brd): 63.65% | YFP fluorescence quenching using Facinicline (30 nM fac): 83.07 | YFP fluorescence quenching using Varenicline (30 nM var, first column): −0.688 | YFP fluorescence quenching using Varenicline (30 nM var, second column): 0.672 | YFP fluorescence quenching using CNL001 (50 nM CNL001, first column): 80.221% | YFP fluorescence quenching using CNL001 (50 nM CNL001, second column): 81.789% | YFP fluorescence quenching using ABT-126 (50 nM abt): 23.65% | YFP fluorescence quenching using CNL001 (100 nM CNL001, first column): 82% | YFP fluorescence quenching using CNL001 (100 nM CNL001, second column): 80.766% | YFP fluorescence quenching using CNL002 (100 nM CNL002): 49.9% | YFP fluorescence quenching using ABT-126 (100 nM abt): 61.83% | YFP fluorescence quenching using AZD-0328 (100 nM azd0328): 80.55% | YFP fluorescence quenching using Facinicline (100 nM fac): 85.36 | YFP fluorescence quenching using ABT-126 (300 nM abt): 76.44% | YFP fluorescence quenching using AZD-0328 (300 nM azd0328): 83.15% | YFP fluorescence quenching using TC-5619/Bradanicline (300 nM brd): 64.85% | YFP fluorescence quenching using Facinicline (300 nM fac): 84.19 | YFP fluorescence quenching using Varenicline (300 nM var, first column): 75.189 | YFP fluorescence quenching using Varenicline (300 nM var, second column): 74.923 | YFP fluorescence quenching using Varenicline (500 nM var, first column): 79.048 | YFP fluorescence quenching using Varenicline (500 nM var, second column): 80.337 | YFP fluorescence quenching using CNL001 (1 uM CNL001, first column): 81.707% | YFP fluorescence quenching using CNL001 (1 uM CNL001, second column): 82.665% | YFP fluorescence quenching using CNL002 (1 uM CNL002): 80.72% | YFP fluorescence quenching using ABT-126 (1 uM abt): 77.68% | YFP fluorescence quenching using TC-6987 (1 uM tc6987): 74.1 | YFP fluorescence quenching using Varenicline (1 uM var, first column): 79.766 | YFP fluorescence quenching using Varenicline (1 uM var, second column): 76.836 | YFP fluorescence quenching using TC-6987 (10 uM tc6987): 81.7 | YFP fluorescence quenching using CNL002 (30 uM CNL002): 80.97% | YFP fluorescence quenching using AZD-0328 (30 uM azd0328): 82.53% | YFP fluorescence quenching using Facinicline (30 uM fac): 82.75 | YFP fluorescence quenching using TC-6987 (500 uM tc6987): 80.18 | percent quench of YFP fluorescence, 30 nM TC-6683: −17.99% | percent quench of YFP fluorescence, 300 nM TC-6683: −23.26% | percent quench of YFP fluorescence, 3 uM TC-6683: −18.84% | percent quench of YFP fluorescence, 30 uM TC-6683: −16.92% | percent quench of YFP fluorescence, 100 uM TC-6683: −15.59% | percent quench of YFP fluorescence, 10 uM ach: −2.63% | percent quench of YFP fluorescence, 30 uM ach (acetylcholine 30 uM): 30.06% | percent quench of YFP fluorescence, 100 uM ach: 71.27% | percent quench of YFP fluorescence, 1 mM ach: 79.66% | percent quench of YFP fluorescence, 3 mM ach: 74.9%
